Assay results published in US20240084330A1 (BROAD INSTITUTE, published 2024).

B1: MmPNMA3 (mouse PNMA3 produced in E. coli, tags removed) (other, UniProt Q8JZW8 1-466, looked up)
chain: MPLNLLQDWCRGEHLNTQRSMLILGIPEDCSEDEFEETLHEALKHLGRYRIIGRMFRREENAQAFLVELARDFDYALVPREIEGKGGPWEVVVKPPHSDDEFLNRLNHFLEEERRTVSDMNRVLGTHSNHSPTKTTISADFWVWAQTLGAVMQPLLEQMLYRELRVFSGNTISIPGLLAFDSWLEHTTEMLQMWQVPEVEKRRRLMECLRGPALQVVNVLRANNAAITVKECLEALRQVFGSVDNRKIAQLKFCKAYQEPGEKVSSFVVRLETLLQKALEKNAISRKNVNQTRLKRILGGAILSAKLREKLKMLKQRRRPPGFLALVKLFREEEEEWEATRGSERSCYEGLELGPSPSNIGSEERELFVPAFGSVLEERPYQGSRRRRHRRRGQHRKGGVPRDDSQGTRKQNYDTFCYSCGEDGHIRVHCFNPSNRTLVKQKRQAAMEKGNRSWAWEKSHPKPKTK
notes: Cloned from mouse cDNA into a TwinStrep-SUMO backbone; tags cleaved with SUMO protease before size exclusion
B2: MmPNMA5 (mouse PNMA5 produced in E. coli, tags removed) (other, UniProt Q5DTT8 1-618, looked up)
chain: MAVALLDDWCKGMDLDPKKAVLIVGIPVQYTEAAINDALKEGLPPLCAYKVIGRMFRREDEAKAVLIELPEVVDYTMMPTHIPAEGGAWEVVVKPRSPDDEFMNKLIYFLRDEGRRIVDVAKALGFSTVPTGKIELKNLDQDKPKGLKSLCNNSTCYKKLKVFSGSPFPGPGEESFETWLEEVTELMQLWQVSEREKKQCLLESLRGSALSIMQALWTSNDSLTVEQCLKALKHIFGNKEDSKVLQFRFLQSSQKPAEKVSDYLLRLEPLLQKAVQQSPLSAHSADSIRLKHVLSQVSMTTGLRGKLSLLDQQGCPPTFLELMKLTRDEEEWESTVVVEEQEQVRRDSSACEAANEVVTQAEDSREVSTQTTGEEMTSVKRRRLLWRHSAGEEGQRKESGFWAESEPDEQKPYVRAQESGNERGAWAVSHPNPKEIEAQDSQEFLPVAGNRDTLTKSWGSPDKGTGDMSVAEGQQGQGKAPNFLLARNDPNKQEQIPHSSVTTKWQDRGECQRLKWGASMITRPQGNPDRSWDTSGSQDGEDGCSELRMPTGTEAAQGVEEPATGLSWAEDTSAWEQARLGRETVPRRGGRRIQPVFRIIYTALGEPHEGSTLESFRE
notes: as for B1
B3: MmMOAP1 (mouse MOAP1 produced in E. coli, tags removed) (other, UniProt Q9ERH6 1-352, looked up)
chain: MTLRLLEDWCRGMDMNPRKALLVAGIPPTCGVADIEEALQAGLAPLGEHRLLGRMFRRDENKNVALIGLTVETGSALVPKEIPAKGGVWRVIFKPPDTDSDFLCRLNEFLKGEGMTMGELTRVLGNRNDPLGLDPGIMIPEIRAPMLAQALNEALKPTLQYLRYKKLSVFSGRDPPGPGEEEFESWMFHTSQVMKTWQVSDVEKRRRLIESLRGPAFEIIRVLKINNPFITVAECLKTLETIFGIIDNPRALQVKYLTTYQKTDEKLSAYVLRLEPLLQKLVQKGAIEKEVVNQARLDQVIAGAVHKSVRRELGLPEGSPAPGLLQLLTLIKDKEAEEEEVLLQAELEGYCT
notes: Cloned from mouse cDNA into a TwinStrep-SUMO backbone; tags cleaved with SUMO protease before size exclusion; also called modulator of apoptosis 1; Pnma4

Target: the molecule itself
Assay: self-assembly of E. coli-produced protein; size exclusion and electron microscopy

Binding result, binds:
B1, B2, B3
